Measured values as given in publication PMC7774954 (PLoS ONE, 2020).
Where no end group is shown, it is not given here. The star is where a group is joined. Biotin = O=C1N[C@H]2[C@H](CS[C@H]2CCCCC(=O)*)N1; TTDS = NCCCOCCOCCOCCCNC(=O)CCC(=O)*

Legend:
Assay in all cases: holdup assay; biotinylated PBM peptide saturating streptavidin resin (biotin resin as reference); tag-PDZ at 4 uM in crude E. coli lysate, 15 min, filtration, free tag-PDZ by capillary electrophoresis; singlicate; BI cut-off 0.20; BI converted into KD with the peptide concentration back-calculated from FP
Details in all cases: one partner purified
MAGI3-2 = target: T1, MAGI3-2 (human, UniProt Q5TCQ9 410-492)
T1 construct: PDZ domain number 2 of human MAGI3; also called MAGI3 PDZ dom 2; source: E. coli, in crude cell lysate; not shown: His, N-terminal, kept
T1 sequence (Q5TCQ9 410-492): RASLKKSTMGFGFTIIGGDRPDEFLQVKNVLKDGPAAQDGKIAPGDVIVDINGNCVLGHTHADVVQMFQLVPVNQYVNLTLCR

NHERF2-1 = target: T2, NHERF2-1 (human, UniProt Q15599 11-90)
T2 construct: PDZ domain number 1 of human NHERF2; also called NHERF2 PDZ dom 1; source: E. coli, in crude cell lysate; not shown: His, N-terminal, kept
T2 sequence (Q15599 11-90): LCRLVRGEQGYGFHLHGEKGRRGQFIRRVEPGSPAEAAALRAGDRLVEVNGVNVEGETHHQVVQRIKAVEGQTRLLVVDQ

MAGI2-2 = target: T3, MAGI2-2 (human, UniProt Q86UL8 426-510)
T3 construct: PDZ domain number 2 of human MAGI2; also called MAGI2 PDZ dom 2; source: E. coli, in crude cell lysate; not shown: His, N-terminal, kept
T3 sequence (Q86UL8 426-510): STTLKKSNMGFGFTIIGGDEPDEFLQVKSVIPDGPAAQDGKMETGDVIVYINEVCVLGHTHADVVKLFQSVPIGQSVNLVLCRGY

DLG1-2 = target: T4, DLG1-2 (human, UniProt Q12959 319-405)
T4 construct: PDZ domain number 2 of human DLG1; also called DLG1 PDZ dom 2; source: E. coli, in crude cell lysate; not shown: His, N-terminal, kept

MAGI1-3 = target: T5, MAGI1-3 (human, UniProt Q96QZ7 643-721)
T5 construct: PDZ domain number 3 of human MAGI1; also called MAGI1 PDZ dom 3; source: E. coli, in crude cell lysate; not shown: His, N-terminal, kept
T5 sequence (Q96QZ7 643-721): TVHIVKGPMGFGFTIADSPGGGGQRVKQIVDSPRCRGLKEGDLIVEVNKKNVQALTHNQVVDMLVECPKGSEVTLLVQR

NHERF2-2 = target: T6, NHERF2-2 (human, UniProt Q15599 150-230)
T6 construct: PDZ domain number 2 of human NHERF2; also called NHERF2 PDZ dom 2; source: E. coli, in crude cell lysate; not shown: His, N-terminal, kept
T6 sequence (Q15599 150-230): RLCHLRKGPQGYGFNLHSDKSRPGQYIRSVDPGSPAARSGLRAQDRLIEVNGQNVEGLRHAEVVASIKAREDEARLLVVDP

MAGI2-3 = target: T7, MAGI2-3 (human, UniProt Q86UL8 605-683)
T7 construct: PDZ domain number 3 of human MAGI2; also called MAGI2 PDZ dom 3; source: E. coli, in crude cell lysate; not shown: His, N-terminal, kept
T7 sequence (Q86UL8 605-683): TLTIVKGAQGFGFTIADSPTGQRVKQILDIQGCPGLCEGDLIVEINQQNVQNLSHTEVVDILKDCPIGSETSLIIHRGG

PTPN13-2 = target: T8, PTPN13-2 (human, UniProt Q12923 1368-1452)
T8 construct: PDZ domain number 2 of human PTPN13; also called PTPN13 PDZ dom 2; source: E. coli, in crude cell lysate; not shown: His, N-terminal, kept
T8 sequence (looked up): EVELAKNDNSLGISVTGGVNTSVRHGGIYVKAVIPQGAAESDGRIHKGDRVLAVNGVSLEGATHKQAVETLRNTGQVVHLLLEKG

PTPN13-4 = target: T9, PTPN13-4 (human, UniProt Q12923 1788-1868)
T9 construct: PDZ domain number 4 of human PTPN13; also called PTPN13 PDZ dom 4; fourth PDZ domain of PTPN13; source: E. coli, in crude cell lysate; not shown: His, N-terminal, kept
T9 sequence (looked up): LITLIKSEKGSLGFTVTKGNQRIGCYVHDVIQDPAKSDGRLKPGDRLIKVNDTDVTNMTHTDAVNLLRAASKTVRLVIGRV

PARD3-3 = target: T10, PARD3-3 (human, UniProt Q8TEW0 590-677)
T10 construct: the text says PARD3-1; also called PARD3 PDZ dom 3; source: E. coli, in crude cell lysate; not shown: His, N-terminal, kept
T10 sequence (Q8TEW0 590-677): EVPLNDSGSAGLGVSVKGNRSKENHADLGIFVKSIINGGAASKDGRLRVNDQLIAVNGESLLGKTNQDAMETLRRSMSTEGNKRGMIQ

- Kd (MAGI3-2): 21 µM
- Kd (NHERF2-1): 134 µM
- Kd (MAGI2-2): 149 µM
- Kd (DLG1-2): 81 µM
- Kd (MAGI1-3): 10 µM
- Kd (NHERF2-2): 125 µM
- Kd (MAGI2-3): 30 µM
- Kd (PTPN13-2): 16 µM
- Kd (PTPN13-4): 36 µM
- Kd (PARD3-3): 96 µM
B1: PTEN_13 (peptide, UniProt P60484 391-403, looked up)
peptide: {Biotin-TTDS}-PFDEDQHTQITKV
notes: also called 13-mer PTEN peptide; extended wild-type peptide; source: synthetic peptide, bought: JPT Innovative Peptide Solutions (70%-80% purity)
